{"source": "patent US20200113912A1", "about": "“Methods and Compositions for the Treatment of Disease with Immune Stimulatory Conjugates” (Silverback Therapeutics, Inc., priority 2018, published 2020)", "key": {"[1]": {"test_system": "BMDM + MDA-MB-468 (HER2neg)", "test": "mTNFα from bone marrow derived macrophages co-cultured with MDA-MB-468", "assay_type": "cell-based, mouse", "details": "24 hours; conjugate 100-0.001 nM, payload 1000-0.001 nM; HER2neg MDA-MB-468", "method": "(§1) The ability of an anti-HER2-TLR7 conjugate to specifically activate mouse macrophages when bound to tumor cells by HER2 was assessed in vitro as follows. Bone marrow cells were harvested from BALB/cJ mouse femurs and tibias using a 27-gauge needle attached to a 3 mL syringe filled with growth media (DMEM supplemented with 10% Fetal Bovine Serum, 1 mM Sodium Pyruvate, 1× GlutaMAX-1, 1× Non-Essential Amino Acids, 10 mM HEPES and 0.5% Penicillin/Streptomycin). Bone marrow cells were centrifuged, and RBC were lysed before being counted and resuspended at a concentration 5×10^5/mL in growth media. Ten mL of cell suspension was placed in 10 cm dishes and 20 ng/mL murine macrophage-colony-stimulating factor (mM-CSF) was added. […] Bone marrow derived macrophage cells lines (BMDM) and tumor cell lines SK-BR-3 (HER2pos) or MDA-MB-468 (HER2neg) were removed from plates with Accutase cell detachment solution and counted. […]\n(§2) After culture, supernatants were collected and frozen at −80° C. until cytokine analysis was performed. Murine TNFα (mTNFα) levels in the supernatant were determined by mTNFα ELISA Kit (BioLegend) and read on an Envision Plate Reader (Perkin Elmer, Waltham, Mass.) according to manufacturer's instructions. mTNFα levels were then graphed using GraphPad Prism 7.01 software (GraphPad Software, San Diego, Calif.) and EC50 values were generated using non-linear regression curve fit."}, "BMDM + SK-BR-3 (HER2pos)": {"test_system": "BMDM + SK-BR-3 (HER2pos)", "test": "mTNFα from bone marrow derived macrophages co-cultured with SK-BR-3", "assay_type": "cell-based, mouse", "details": "24 hours; conjugate 100-0.001 nM, payload 1000-0.001 nM; HER2pos SK-BR-3", "method": "as §1, §2"}, "C-reactive protein (CRP)": {"test_system": "C-reactive protein (CRP)", "test": "Pharmacodynamic response (CRP) after repeat SC dosing in non-human primates", "assay_type": "in vivo, cynomolgus monkey", "details": "repeat-dose SC, 2, 6 and 12 mg/kg", "excerpt": "Blood samples were collected by venous puncture at various timepoints and analyzed for blood chemistries, including C-reactive protein (CRP), using a standard blood analyzer."}, "[2]": {"test": "Repeat-dose subcutaneous administration in cynomolgus monkey", "assay_type": "in vivo", "details": "SC", "method": "The monkey used in this study was purpose-bred, treatment-naïve, and housed and treated at Charles River Laboratories in Reno, Nev., in accordance with US FDA GLP regulations. The target age and weight of the animal at time of dosing was 2 to 4 years and 2.5 to 3.5 kg, respectively, and the animal used on study was female. HER2-TLR8 was evaluated on a repeat dose schedule as follows: 2 mg/kg dose was subcutaneously administered on a Q2W dosing schedule over 4 dosing cycles, 6 mg/kg was subcutaneously administered on a Q3W dosing schedule over 4 dosing cycles and 12 mg/kg was subcutaneously administered on a Q3W dosing schedule over 4 dosing cycles. After each dose, the animal was observed cage-side for clinical signs and symptoms associated with dosing."}, "[3]": {"test": "Repeat-dose intravenous administration in cynomolgus monkey", "assay_type": "in vivo", "method": "The monkey used in this study was purpose-bred, treatment-naïve, and housed and treated at Charles River Laboratories in Reno, Nev., in accordance with US FDA GLP regulations. The target age and weight of the animal at time of dosing was 2 to 4 years and 2.5 to 3.5 kg, respectively, and the animal used on study was female. HER2-TLR8 was evaluated on a repeat dose schedule as follows: 1 mg/kg was dosed on Day 1, followed by a 7.5 mg/kg dose administered one week later on Day 8 and a third 7.5 mg/kg dose administered three weeks later on Day 29. After each dose, the animal was observed cage-side for clinical signs and symptoms associated with dosing. […] This animal was euthanized due to the rapid onset of clinical signs of pale mucus membranes and face, hunched posture, decreased activity, hypothermia (as assessed by being cool to the touch), and labored, shallow breathing. These clinical signs presented within 2.5 hour following dosing on Day 29."}, "[4]": {"test": "Single-dose pharmacokinetic profile in cynomolgus monkey (serum ELISA)", "assay_type": "in vivo", "method": "The pharmacokinetic profile of a single dose of HER2-TLR8 administered subcutaneously at 2, 6, or 12 mg/kg or intravenously at 7.5 mg/kg in cynomolgus monkey was studied. Blood was collected by venous puncture at a series of timepoints pre and post-dosing. Serum was prepared and HER2-TLR8 was measured by an ELISA assay in which serum samples were added to an assay plate coated with recombinant HER2 and HER2-TLR8 was detected using a labelled antibody directed against the TLR8 payload."}, "[5]": {"details": "10 μg per mouse, 5 minutes following second dose of HER2-TLR7 5 mg/kg", "experimental": "Rectal temperatures and clinical scores were assessed as previously shown."}}, "data": [{"smiles": "CCOCc1nc2c(N)nc3ccccc3c2n1CC(C)(C)OCCNC(=O)C(C)(C)N", "note": "[TLR7 payload compound]", "values": [{"measurement": "activation of macrophages (mTNFα in supernatant)", "setting": "[1]", "result": "capable of potently activating the macrophages in the presence of both cell lines"}, {"measurement": "activation of macrophages (mTNFα in supernatant)", "setting": "BMDM + SK-BR-3 (HER2pos)", "result": "capable of potently activating the macrophages in the presence of both cell lines"}]}, {"smiles": "CCCN(CCC)C(=O)C1=Cc2ccc(C(=O)Nc3cnc4c(c3)CN(C(=O)OCc3ccc(NC(=O)[C@H](CCCNC(N)=O)NC(=O)[C@@H](NC(=O)CCCCCN5C(=O)C=CC5=O)C(C)C)cc3)CC4)cc2N=C(N)C1", "note": "[HER2-TLR8]", "values": [{"measurement": "C-reactive protein (CRP) in blood", "setting": "C-reactive protein (CRP)", "result": "consistent, modest elevation of C-reactive protein (CRP) with each dosing cycle"}, {"measurement": "tolerability", "setting": "[2]; 2 mg/kg Q2W, 6 mg/kg Q3W, 12 mg/kg Q3W, 4 dosing cycles", "result": "well-tolerated at all dose levels and through all dosing cycles"}, {"measurement": "clinical anaphylaxis-like signs or symptoms", "setting": "[2]; first or repeat dose at any dose level (2, 6, 12 mg/kg)", "result": "No clinical, anaphylaxis-like signs or symptoms were observed"}, {"measurement": "anaphylaxis-like response after the first two doses", "setting": "[3]; IV bolus, 1 mg/kg Day 1 and 7.5 mg/kg Day 8", "result": "did not produce an anaphylaxis-like response"}, {"measurement": "outcome of the third intravenous dose", "setting": "[3]; IV bolus, 7.5 mg/kg Day 29", "result": "resulted in mortality"}, {"measurement": "time to presentation of clinical signs following dosing", "setting": "[3]; third IV dose, 7.5 mg/kg Day 29", "result": "≤ 2.5", "unit": "h"}, {"measurement": "AUC", "setting": "[4]; 7.5 mg/kg, IV, 7.5 mpk", "result": 3770, "unit": "µg·h/mL"}, {"measurement": "AUC", "setting": "[4]; subcutaneous, 2 mg/kg, SubC, 2 mpk", "result": 714, "unit": "µg·h/mL"}, {"measurement": "AUC", "setting": "[4]; subcutaneous, 6 mg/kg, SubC, 6 mpk", "result": 2400, "unit": "µg·h/mL"}, {"measurement": "AUC", "setting": "[4]; subcutaneous, 12 mg/kg, SubC, 12 mpk", "result": 3650, "unit": "µg·h/mL"}]}, {"smiles": "CNC[C@H](O)c1ccc(O)c(O)c1", "note": "[epinephrine]", "values": [{"measurement": "effect on toxicity of second IV dose of HER2-TLR7", "setting": "[5]", "result": "mitigates the toxicity"}]}]}
